B1: Hairpin Ribozyme (parent)
chain: GUCCUCUUUCACGUGCGCGUGAAAGAGAGAAGUGAACCAGAGAAACACACGUUGUGGUAUAUUACCUGGUA

Variants of: B1
Assay: self-cleavage, relative activity (ratio to wild type); higher = more cleavage; co-transcriptional

Variant	self-cleavage
GUCCUCUUUCACGUGCGCGUGAAAGAGAGAAGUGAACCAGAGAAACACAUGUUGUGGUAUAUUAGCUGGUA [C50U C65G]	0.161
GUCCUCUUUCACGAGCGCGUGAAAGAGAGAAGUGAACCAGAGAAACACACGUUGUGGUAUAUUACCGGGUA [U14A U67G]	0.277
GUCCACUUUAACGUGCGCGUGAAAGAGAGAAGUGAACCAGAGAAACACACGUUGUGGUAUAUUACCUGGUA [U5A C10A]	0.188
GUCCUCUUUCACGUGCGCGUCAAAGAGAGAAGUGAACCAGAGAAACACACGUUGUGGUUUAUUACCUGGUA [G21C A59U]	0.204
GUCCUCUUUCACGUGCGCGCGAAAGAGAGAAGUGAAGCAGAGAAACACACGUUGUGGUAUAUUACCUGGUA [U20C C37G]	0.342
GUCCUCUUUCACGUGCGCGUGAAAAAGCGAAGUGAACCAGAGAAACACACGUUGUGGUAUAUUACCUGGUA [G25A A28C]	0.394
GUCCUCUUUCACGUGCGCGUGAAAGAGAGAAGUGAACCAGAGAUACACACGUAGUGGUAUAUUACCUGGUA [A44U U53A]	0.079
GUCCUCUUUCACGUGCGCGCGAAAAAGAGAAGUGAACCAGAGAAACACACGUUGUGGUAUAUUACCUGGUA [U20C G25A]	0.288
GUCCUCUUUCACGUGCGCGUGAAAGAGAGAAGUGAACCAGUUAAACACACGUUGUGGUAUAUUACCUGGUA [A41U G42U]	0.325
GUCCUCUUUCACGUGCGCGUGAAAGAGAGAAGUGAACCAGAGAGACACACGUUGUGGUACAUUACCUGGUA [A44G U60C]	0.0999
GUCCUCUUUCACGUGCGCGUGAAAGAGAGAAGUGAACAAAAGAAACACACGUUGUGGUAUAUUACCUGGUA [C38A G40A]	0.139
GUCCUCUUUCACGAGCGCGUGAAAGAGAGAAGUGAAUCAGAGAAACACACGUUGUGGUAUAUUACCUGGUA [U14A C37U]	0.481
GUCCUCUUUCACGUGCGCGUGAAAGAGAGAAGUGAACCAAAGAAACACAAGUUGUGGUAUAUUACCUGGUA [G40A C50A]	0.194
GUCUUCUUUCACGUGCGCGUGAAAGAGAGAAGUGAACCAGAGAAACAGACGUUGUGGUAUAUUACCUGGUA [C4U C48G]	0.123
GUCCUCUUUCACGUGCGCGUGAAAGAGAGGAGUGCACCAGAGAAACACACGUUGUGGUAUAUUACCUGGUA [A30G A35C]	0.141
GUCCUCUUUCACGUGCGCGUGAAAGAGAGAAGUUAGCCAGAGAAACACACGUUGUGGUAUAUUACCUGGUA [G34U A36G]	0.909
GUCCUCUUUCACGUGCGCGUGAAAGAGAGAAGUGAACCAGAGAAAGACGCGUUGUGGUAUAUUACCUGGUA [C46G A49G]	0.137
GUCCUCUUUCACAUGCGCGUGAAAGAGAGAGGUGAACCAGAGAAACACACGUUGUGGUAUAUUACCUGGUA [G13A A31G]	0.515
GUCCUCUUUCACGUGCGCGUGAAAGAGAGAAGUGAACCAGAAAAACACACGUUGUGGUAUAUUACCUGGUC [G42A A71C]	0.566

Variant	self-cleavage
GUCCUCUUUCACGUGCGCGUGAAAGAGAGAACUGAACCAGAGAAACACACGUUGUGCUAUAUUACCUGGUA [G32C G57C]	0.113
GUCCUCUUUCACGUGCGCGUGAAACAGAGAAGUGAACCAGAGAAACACACGUUAUGGUAUAUUACCUGGUA [G25C G54A]	0.239
GUCCGCUUUCACGUGCGCGUGAAAGAUAGAAGUGAACCAGAGAAACACACGUUGUGGUAUAUUACCUGGUA [U5G G27U]	0.0644
GUCCUCUUUCUCGUGCGCGUUAAAGAGAGAAGUGAACCAGAGAAACACACGUUGUGGUAUAUUACCUGGUA [A11U G21U]	0.915
GUCCUCUAUCACGUGCGCGUGAAAGAGAGAAGUAAACCAGAGAAACACACGUUGUGGUAUAUUACCUGGUA [U8A G34A]	0.98
GUCCUCUUUCACGUGCGCGUGAAAGAGAGAAGUGAACCAGAGAAACACACGUUGUGGUAUAUUAUAUGGUA [C65U C66A]	0.172
GUCCACUUUCACGUGCGCGUGAAAGAGAGAAGUGAACCAGAGAAACACACGUUGUGGUAUAUUACCUGGGA [U5A U70G]	0.171
GUCCUAUCUCACGUGCGCGUGAAAGAGAGAAGUGAACCAGAGAAACACACGUUGUGGUAUAUUACCUGGUA [C6A U8C]	0.344
GUCCUCUUUCACGUGGGCGUGAAAGAGAGAAGUGAACCAUAGAAACACACGUUGUGGUAUAUUACCUGGUA [C16G G40U]	0.173
GUCCUCUUUCUCGUGCGCGUGAAAGAGAGAAGUGAACCAGAGAAACACACGUUGUGGUAUACUACCUGGUA [A11U U62C]	0.187
GUCCUCUUUCACGUGCGCGUGAAAGAGAGAAGUGAGCCAGAGAAACACACGUUGUAGUAUAUUACCUGGUA [A36G G56A]	0.146
GUGCUCUUUCACGUGCGCGUGAAAGAGAGAAGUGAACCUGAGAAACACACGUUGUGGUAUAUUACCUGGUA [C3G A39U]	0.114
GUCCUCUUUCACGUGCGCGUGAAAGAGAGAAGUGAACCAGAGAAACACACGGUGUGGCAUAUUACCUGGUA [U52G U58C]	0.707
GUCCUCUUUCUCGUGCGCGUGAAAGAGAGAGGUGAACCAGAGAAACACACGUUGUGGUAUAUUACCUGGUA [A11U A31G]	0.464
GUCCUCUUUCACGUGCGCGUGAAAGAGAGAAGUGAACCAGAGAAACACACGUUGUGGUAUAUUACCUAGUU [G68A A71U]	0.15
GUCCUCUUUCACGUGCGCGUGAGAUAGAGAAGUGAACCAGAGAAACACACGUUGUGGUAUAUUACCUGGUA [A23G G25U]	0.357
GUCCACUUUCACGUGCGCGUGAAAGAGAGAAGUGAACCAGAGAAACACACGUUGUGGUAUAUUAUCUGGUA [U5A C65U]	0.222
GUCCUCUUUCACGUGCGCGUGAAACAGAGAAGUGCACCAGAGAAACACACGUUGUGGUAUAUUACCUGGUA [G25C A35C]	0.474
GUCCUCUUUCACGUGCGCGUGAAAGAGAGAAGUGAACUAGAGAAACACACGUUCUGGUAUAUUACCUGGUA [C38U G54C]	0.235
